Experimental data published in paper PMC10367076, “Mechanistic and Structural Insights into a Divergent PLP-Dependent L-Enduracididine Cyclase from a Toxic Cyanobacterium” (ACS Catalysis, 2023).

How the values were obtained:
[1] = tested on: N=C(N)NC[C@@H](O)C[C@H](N)C(=O)O; assay: purified protein; details: KPi buffer; PLP cofactor co-purified; cyclodehydration to L-enduracididine
[2] = target: GntC E9A (Sphaerospermopsis torques-reginae ITEP-024); assay: SEC; analytical size exclusion chromatography of purified wild-type GntC and mutants
[3] = target: GntC E9D (Sphaerospermopsis torques-reginae ITEP-024); assay: as above
[4] = target: GntC E9Q (Sphaerospermopsis torques-reginae ITEP-024); assay: as above
[5] = target: GntC K219A (Sphaerospermopsis torques-reginae ITEP-024); assay: as above
[6] = target: GntC N52A (Sphaerospermopsis torques-reginae ITEP-024); assay: as above
[7] = target: GntC N52D (Sphaerospermopsis torques-reginae ITEP-024); assay: as above
[8] = target: GntC N52Q (Sphaerospermopsis torques-reginae ITEP-024); assay: as above
[9] = target: GntC S25A (Sphaerospermopsis torques-reginae ITEP-024); assay: as above
[10] = target: GntC T84A (Sphaerospermopsis torques-reginae ITEP-024); assay: as above
[11] = target: GntC T84V (Sphaerospermopsis torques-reginae ITEP-024); assay: as above
[12] = target: Sphaerospermopsis torques-reginae ITEP-024 GntC (Sphaerospermopsis torques-reginae ITEP-024); assay: as above

Substance “GntC (Sphaerospermopsis torques-reginae ITEP-024)” has a Km [1] of 150 ± 80 µM and a kcat [1] of 0.0061 ± 0.008 min^–1.

For GntC E9A (enzyme), the stoichiometry N [2] was 2.

For GntC E9D (enzyme), the stoichiometry N [3] was 2.

GntC E9Q (enzyme) was tested, and the stoichiometry N [4] was 2.

GntC K219A (enzyme) showed a stoichiometry N [5] of 2.

Work on GntC N52A (enzyme) yielded a stoichiometry N [6] of 2.

With GntC N52D (enzyme) the stoichiometry N [7] was 2.

In the case of GntC N52Q (enzyme), the stoichiometry N [8] is reported as 2.

GntC S25A (enzyme) gave a stoichiometry N [9] of 2.

Substance GntC T84A (enzyme) has a stoichiometry N [10] of 2.

With GntC T84V (enzyme) the stoichiometry N [11] was 2.

In the case of “Sphaerospermopsis torques-reginae ITEP-024 GntC (enzyme)”, the stoichiometry N [12] is reported as 2.
